Source: US20110262366A1

Columns and labels:
[1] = target: endothelial cell receptor on HAEC (human aortic endothelial cells); assay: competition, 200 ng/ml VEGF121 against 2% BRU-114 microbubbles (competitor) on HAEC, static
[2] = target: endothelial cell receptor on HAEC (human aortic endothelial cells); assay: competition, 400 ng/ml VEGF121 against 2% BRU-114 microbubbles (competitor) on HAEC, static
[3] = target: endothelial cell receptor on HAEC (human aortic endothelial cells); assay: competition, 100 ng/ml VEGF121 against 2% BRU-114 microbubbles (competitor) on HAEC, static
[4] = target: endothelial cell receptor on HAEC (human aortic endothelial cells); assay: competition, 75 ng/ml VEGF165 against 5% DPPE-GTKPPR microbubbles (competitor) on HAEC, static
[5] = target: endothelial cell receptor on HAEC (human aortic endothelial cells); assay: competition, 200 ng/ml VEGF165 against 2% BRU-114 microbubbles (competitor) on HAEC, static
[6] = target: endothelial cell receptor on HAEC (human aortic endothelial cells); assay: competition, VEGF165 against 5% DPPE-GTKPPR microbubbles (competitor) on HAEC, static
[7] = target: endothelial cell receptor on HAEC (human aortic endothelial cells); assay: competition, 6.25 ng/ml VEGF165 against 5% DPPE-GTKPPR microbubbles (competitor) on HAEC, static
[8] = target: NP-1/Fc (Neuropilin-1/Fc, R&D Systems); assay: fluorescence polarization, competition against OG-labeled BRU-326 (competitor) on NP-1/Fc
Sequence of NP-1/Fc (Neuropilin-1/Fc, R&D Systems) (Q9QWJ9 22-855): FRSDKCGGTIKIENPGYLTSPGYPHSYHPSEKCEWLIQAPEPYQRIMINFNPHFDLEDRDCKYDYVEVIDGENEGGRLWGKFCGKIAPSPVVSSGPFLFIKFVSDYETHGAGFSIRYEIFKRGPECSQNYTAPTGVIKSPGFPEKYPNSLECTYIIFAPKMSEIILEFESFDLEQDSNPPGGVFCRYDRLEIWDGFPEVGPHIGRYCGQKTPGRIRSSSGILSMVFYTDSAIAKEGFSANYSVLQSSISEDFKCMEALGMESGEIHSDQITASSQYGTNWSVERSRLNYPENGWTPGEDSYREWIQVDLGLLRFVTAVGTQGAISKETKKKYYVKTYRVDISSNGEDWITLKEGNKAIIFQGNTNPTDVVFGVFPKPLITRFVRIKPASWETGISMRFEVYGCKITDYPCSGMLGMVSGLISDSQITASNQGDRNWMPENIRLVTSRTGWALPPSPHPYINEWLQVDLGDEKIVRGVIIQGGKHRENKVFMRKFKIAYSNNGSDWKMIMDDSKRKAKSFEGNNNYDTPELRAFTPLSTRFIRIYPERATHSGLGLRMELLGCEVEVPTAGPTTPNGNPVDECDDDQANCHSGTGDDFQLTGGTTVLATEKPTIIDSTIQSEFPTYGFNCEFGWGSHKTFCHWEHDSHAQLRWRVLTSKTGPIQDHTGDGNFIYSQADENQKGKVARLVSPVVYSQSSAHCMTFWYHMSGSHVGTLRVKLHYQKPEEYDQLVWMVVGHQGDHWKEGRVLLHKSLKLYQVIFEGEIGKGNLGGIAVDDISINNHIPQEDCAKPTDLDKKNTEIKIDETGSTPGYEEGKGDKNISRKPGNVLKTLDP

[9] = target: endothelial cell receptor on HAEC (human aortic endothelial cells); assay: competition, 25 ng/ml VEGF165 against 2% BRU-114 microbubbles (competitor) on HAEC, static
[10] = target: endothelial cell receptor on HAEC (human aortic endothelial cells); assay: competition, 25 ng/ml VEGF165 against 5% DPPE-GTKPPR microbubbles (competitor) on HAEC, static
[11] = target: endothelial cell receptor on HAEC (human aortic endothelial cells); assay: competition, 100 ng/ml VEGF165 against 2% BRU-114 microbubbles (competitor) on HAEC, static
[12] = target: endothelial cell receptor on HAEC (human aortic endothelial cells); assay: competition, 50 ng/ml VEGF165 against 5% DPPE-GTKPPR microbubbles (competitor) on HAEC, static
[13] = target: endothelial cell receptor on HAEC (human aortic endothelial cells); assay: competition, 12.5 ng/ml VEGF165 against 5% DPPE-GTKPPR microbubbles (competitor) on HAEC, static
[14] = target: endothelial cell receptor on HAEC (human aortic endothelial cells); assay: competition, 2500 ng/ml KDR/Fc against 5% DPPE-GTKPPR microbubbles (competitor) on HAEC, static
[15] = target: endothelial cell receptor on HAEC (human aortic endothelial cells); assay: competition, 250 ng/ml KDR/Fc against 5% DPPE-GTKPPR microbubbles (competitor) on HAEC, static
[16] = target: endothelial cell receptor on HAEC (human aortic endothelial cells); assay: competition, 1000 ng/ml KDR/Fc against 5% DPPE-GTKPPR microbubbles (competitor) on HAEC, static
[17] = target: endothelial cell receptor on HAEC (human aortic endothelial cells); assay: competition, 125 ng/ml KDR/Fc against 5% DPPE-GTKPPR microbubbles (competitor) on HAEC, static
[18] = target: endothelial cell receptor on HAEC (human aortic endothelial cells); assay: competition, 500 ng/ml KDR/Fc against 5% DPPE-GTKPPR microbubbles (competitor) on HAEC, static
[19] = target: endothelial cell receptor on HAEC (human aortic endothelial cells); assay: conjugated fluorescent beads on confluent HAEC, static 30 min, image analysis (Example 2, experiment 1)

Sequence of soluble human KDR/Fc chimera (R&D Systems Inc.) (P35968 20-764, change not shown): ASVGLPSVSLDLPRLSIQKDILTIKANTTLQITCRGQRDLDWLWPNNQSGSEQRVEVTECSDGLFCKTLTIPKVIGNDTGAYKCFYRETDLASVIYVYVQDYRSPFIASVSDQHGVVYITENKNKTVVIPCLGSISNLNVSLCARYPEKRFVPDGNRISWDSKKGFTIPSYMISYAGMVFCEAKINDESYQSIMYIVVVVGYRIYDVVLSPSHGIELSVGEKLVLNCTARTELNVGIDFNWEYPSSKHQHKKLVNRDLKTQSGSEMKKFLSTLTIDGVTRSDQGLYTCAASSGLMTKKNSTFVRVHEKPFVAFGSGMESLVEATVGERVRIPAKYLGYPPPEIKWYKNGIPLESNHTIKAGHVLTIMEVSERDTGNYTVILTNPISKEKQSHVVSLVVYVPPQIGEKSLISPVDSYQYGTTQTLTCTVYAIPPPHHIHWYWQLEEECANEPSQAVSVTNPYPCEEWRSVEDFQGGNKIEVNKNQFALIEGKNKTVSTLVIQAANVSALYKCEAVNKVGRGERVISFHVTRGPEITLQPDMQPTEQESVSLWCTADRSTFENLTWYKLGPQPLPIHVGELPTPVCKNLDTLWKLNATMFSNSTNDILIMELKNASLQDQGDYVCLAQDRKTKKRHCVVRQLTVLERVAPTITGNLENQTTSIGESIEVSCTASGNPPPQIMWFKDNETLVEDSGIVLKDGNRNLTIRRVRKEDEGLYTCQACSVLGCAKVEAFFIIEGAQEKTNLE

## VEGF121 (from UniProt P15692 27-147) (ligand)
[1]
  Bubbles Bound in presence of competitor: 849 bubbles
[2]
  Bubbles Bound in presence of competitor: 778 bubbles
[3]
  Bubbles Bound in presence of competitor: 878 bubbles

## VEGF165 (from UniProt P15692 27-191) (ligand)
[4]
  Bubbles Bound in presence of competitor: 190 bubbles
[5]
  Bubbles Bound in presence of competitor: 70 bubbles
[6]
  IC50: 0.0125 µg/mL
[7]
  Bubbles Bound in presence of competitor: 1180 bubbles
[8]
  IC50: 200 nM
[9]
  Bubbles Bound in presence of competitor: 144 bubbles
[10]
  Bubbles Bound in presence of competitor: 342 bubbles
[11]
  Bubbles Bound in presence of competitor: 94 bubbles
[12]
  Bubbles Bound in presence of competitor: 226 bubbles
[13]
  Bubbles Bound in presence of competitor: 599 bubbles

## soluble human KDR/Fc chimera (R&D Systems Inc.) (from UniProt P35968 20-764) (Fc fusion)
[14]
  Bubbles Bound in presence of competitor: 84 bubbles
[15]
  Bubbles Bound in presence of competitor: 786 bubbles
[16]
  Bubbles Bound in presence of competitor: 75 bubbles
[17]
  Bubbles Bound in presence of competitor: 1030 bubbles
[18]
  Bubbles Bound in presence of competitor: 342 bubbles

## BSA-conjugated fluorescent beads (from UniProt P02769 25-607)
[19]
  Integrated density of bound beads (arbitrary units): 1.61
